Experimental findings from patent publication US20240294634A1 (INNATE PHARMA, published 2024) are described below.

One test concerns the target T1, ILT2 mutant 2 (human, UniProt Q8NHL6 24-650).
T1 construct: Transfected in HEK-293T cells; also called M2
In words: flow cytometry, HEK293T cells with ILT2 mutant.

Test [1] has as its target T2, ILT-2_6×His recombinant protein (human, UniProt Q8NHL6 24-458).
T2 construct: also called recombinant 6×HIS tagged ILT2; recombinant human ILT2 proteins
In words: SPR, mAb captured on Protein-A, soluble ILT2 analyte. The protocol: Measurements were performed on a Biacore T200 apparatus (Biacore GE Healthcare) at 25° C. In all Biacore experiments HBS-EP+ (Biacore GE Healthcare) and NaOH 10 mM served as running buffer and regeneration buffer respectively. Sensorgrams were analyzed with Biacore T100 Evaluation software. Protein-A was purchased from (GE Healthcare). Human ILT2 recombinant proteins were cloned, produced and purified at Innate Pharma. Protein-A proteins were immobilized covalently to carboxyl groups in the dextran layer on a Sensor Chip CM5. The chip surface was activated with EDC/NHS (N-ethyl-N′-(3-dimethylaminopropyl) carbodiimidehydrochloride and N-hydroxysuccinimide (Biacore GE Healthcare)). Protein-A was diluted to 10 μg/ml in coupling buffer (10 mM acetate, pH 5.6) and injected until the appropriate immobilization level was reached (i.e. 2000 RU). Deactivation of the remaining activated groups was performed using 100 mM ethanolamine pH 8 (Biacore GE Healthcare). […] For blank subtraction, cycles were performed again replacing ILT2 proteins with running buffer. The monovalent affinity analysis was conducted following a regular Capture-Kinetic protocol as recommended by the manufacturer (Biacore GE Healthcare kinetic wizard). Seven serial dilutions of human ILT2 proteins, ranging from 6.25 to 400 nM were sequentially injected over the captured antibodies and allowed to dissociate for 10 min before regeneration. The entire sensorgram sets were fitted using the 1:1 kinetic binding model.

Another test deals with T3, ILT2 mutant 3 (human, UniProt Q8NHL6 24-650).
T3 construct: Transfected in HEK-293T cells
As to the kind of experiment: flow cytometry, HEK293T cells with ILT2 mutant.

The next test addresses T4, ILT2 mutant 3b (human, UniProt Q8NHL6 24-650).
T4 construct: Transfected in HEK-293T cells
In words: flow cytometry, HEK293T cells with ILT2 mutant.

The next test deals with T5, ILT2 mutant 4 (human, UniProt Q8NHL6 24-650).
T5 construct: Transfected in HEK-293T cells
As to the kind of experiment: flow cytometry, HEK293T cells with ILT2 mutant. For orientation: Flow cytometry measures light scatter and fluorescence of single cells or particles in a stream.

For a further test, the target named is T6, ILT2 mutant 5 (human, UniProt Q8NHL6 24-650).
T6 construct: Transfected in HEK-293T cells
As to the kind of experiment: flow cytometry, HEK293T cells with ILT2 mutant.

The next test addresses T7, ILT2 mutant 6 (human, UniProt Q8NHL6 24-650).
T7 construct: Transfected in HEK-293T cells
As to the kind of experiment: flow cytometry, HEK293T cells with ILT2 mutant.

Another test concerns the target T8, ILT2 mutant 7 (human, UniProt Q8NHL6 24-650).
T8 construct: Transfected in HEK-293T cells
As to the kind of experiment: flow cytometry, HEK293T cells with ILT2 mutant.

Another test addresses T9, ILT2 mutant 8 (human, UniProt Q8NHL6 24-650).
T9 construct: Transfected in HEK-293T cells
As to the kind of experiment: flow cytometry, HEK293T cells with ILT2 mutant.

For the next test, the target named is T10, ILT2 mutant 4-1 (human, UniProt Q8NHL6 24-650).
T10 construct: Transfected in HEK-293T cells
In words: flow cytometry, HEK293T cells with ILT2 mutant.

A further test addresses T11, ILT2 mutant 4-1b (human, UniProt Q8NHL6 24-650).
T11 construct: Transfected in HEK-293T cells
In words: flow cytometry, HEK293T cells with ILT2 mutant.

A further test deals with T12, ILT2 mutant 4-2 (human, UniProt Q8NHL6 24-650).
T12 construct: Transfected in HEK-293T cells
As to the kind of experiment: flow cytometry, HEK293T cells with ILT2 mutant.

The next test has as its target T13, ILT2 mutant 4-3 (human, UniProt Q8NHL6 24-650).
T13 construct: Transfected in HEK-293T cells
In words: flow cytometry, HEK293T cells with ILT2 mutant.

The target of the next test is T14, ILT2 mutant 4-4 (human, UniProt Q8NHL6 24-650).
T14 construct: Transfected in HEK-293T cells
As to the kind of experiment: flow cytometry, HEK293T cells with ILT2 mutant.

A further test addresses T15, ILT2 mutant 4-5 (human, UniProt Q8NHL6 24-650).
T15 construct: Transfected in HEK-293T cells
As to the kind of experiment: flow cytometry, HEK293T cells with ILT2 mutant.

Test [2] addresses T16, Human ILT-2 (complete form) expressed at the cell surface (human, UniProt Q8NHL6 24-650).
T16 construct: also called LILRB1; CHO-ILT2
In words: flow cytometry titration on cells transfected with wild-type ILT2 (WT).

T2 sequence (Q8NHL6 other isoform, or with tags, fused parts or gaps limits assumed): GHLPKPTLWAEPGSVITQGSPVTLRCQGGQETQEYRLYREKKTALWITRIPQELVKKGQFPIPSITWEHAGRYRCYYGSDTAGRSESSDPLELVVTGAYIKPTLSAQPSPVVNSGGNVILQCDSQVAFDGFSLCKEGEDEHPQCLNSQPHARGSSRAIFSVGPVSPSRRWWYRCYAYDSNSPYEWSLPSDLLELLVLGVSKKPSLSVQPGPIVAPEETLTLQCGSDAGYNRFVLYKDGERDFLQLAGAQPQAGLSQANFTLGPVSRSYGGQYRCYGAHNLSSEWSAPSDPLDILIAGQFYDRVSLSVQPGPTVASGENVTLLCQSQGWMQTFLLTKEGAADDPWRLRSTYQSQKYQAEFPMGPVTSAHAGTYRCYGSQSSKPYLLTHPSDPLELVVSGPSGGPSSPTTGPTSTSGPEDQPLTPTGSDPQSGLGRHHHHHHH
T1 sequence (Q8NHL6 other isoform, or with tags, fused parts or gaps mutant): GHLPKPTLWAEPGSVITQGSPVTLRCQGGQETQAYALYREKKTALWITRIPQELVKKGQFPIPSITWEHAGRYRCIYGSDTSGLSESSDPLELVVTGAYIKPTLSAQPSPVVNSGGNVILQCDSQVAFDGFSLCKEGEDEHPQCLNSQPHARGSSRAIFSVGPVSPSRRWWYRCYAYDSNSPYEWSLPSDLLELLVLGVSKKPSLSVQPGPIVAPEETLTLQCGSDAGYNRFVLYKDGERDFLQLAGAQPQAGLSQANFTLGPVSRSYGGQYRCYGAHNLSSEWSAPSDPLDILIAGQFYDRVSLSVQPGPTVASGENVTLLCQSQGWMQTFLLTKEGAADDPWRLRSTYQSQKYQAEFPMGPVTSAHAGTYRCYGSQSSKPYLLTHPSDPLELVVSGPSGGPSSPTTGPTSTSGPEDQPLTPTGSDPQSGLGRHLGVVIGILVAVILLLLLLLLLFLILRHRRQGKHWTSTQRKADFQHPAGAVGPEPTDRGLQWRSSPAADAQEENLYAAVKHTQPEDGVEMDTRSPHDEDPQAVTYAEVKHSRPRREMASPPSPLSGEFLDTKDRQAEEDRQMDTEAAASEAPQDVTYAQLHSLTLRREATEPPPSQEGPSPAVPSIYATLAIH
T15 sequence (Q8NHL6 other isoform, or with tags, fused parts or gaps mutant): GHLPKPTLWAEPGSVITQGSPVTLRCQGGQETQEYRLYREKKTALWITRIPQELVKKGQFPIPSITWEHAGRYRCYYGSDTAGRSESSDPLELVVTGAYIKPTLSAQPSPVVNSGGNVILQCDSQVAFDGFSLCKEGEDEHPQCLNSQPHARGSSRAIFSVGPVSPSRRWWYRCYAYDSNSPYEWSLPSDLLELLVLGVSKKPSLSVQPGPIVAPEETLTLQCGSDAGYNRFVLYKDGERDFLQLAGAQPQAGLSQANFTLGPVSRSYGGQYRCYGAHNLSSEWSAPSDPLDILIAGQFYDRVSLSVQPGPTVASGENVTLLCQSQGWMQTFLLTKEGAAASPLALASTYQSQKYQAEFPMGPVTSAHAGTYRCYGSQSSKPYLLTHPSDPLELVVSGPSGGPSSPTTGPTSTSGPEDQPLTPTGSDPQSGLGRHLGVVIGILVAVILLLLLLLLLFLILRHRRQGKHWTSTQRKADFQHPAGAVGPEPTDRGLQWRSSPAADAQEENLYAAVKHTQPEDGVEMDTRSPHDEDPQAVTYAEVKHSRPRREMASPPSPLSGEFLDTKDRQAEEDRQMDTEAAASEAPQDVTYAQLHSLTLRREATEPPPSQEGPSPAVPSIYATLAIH
T9 sequence (Q8NHL6 other isoform, or with tags, fused parts or gaps mutant): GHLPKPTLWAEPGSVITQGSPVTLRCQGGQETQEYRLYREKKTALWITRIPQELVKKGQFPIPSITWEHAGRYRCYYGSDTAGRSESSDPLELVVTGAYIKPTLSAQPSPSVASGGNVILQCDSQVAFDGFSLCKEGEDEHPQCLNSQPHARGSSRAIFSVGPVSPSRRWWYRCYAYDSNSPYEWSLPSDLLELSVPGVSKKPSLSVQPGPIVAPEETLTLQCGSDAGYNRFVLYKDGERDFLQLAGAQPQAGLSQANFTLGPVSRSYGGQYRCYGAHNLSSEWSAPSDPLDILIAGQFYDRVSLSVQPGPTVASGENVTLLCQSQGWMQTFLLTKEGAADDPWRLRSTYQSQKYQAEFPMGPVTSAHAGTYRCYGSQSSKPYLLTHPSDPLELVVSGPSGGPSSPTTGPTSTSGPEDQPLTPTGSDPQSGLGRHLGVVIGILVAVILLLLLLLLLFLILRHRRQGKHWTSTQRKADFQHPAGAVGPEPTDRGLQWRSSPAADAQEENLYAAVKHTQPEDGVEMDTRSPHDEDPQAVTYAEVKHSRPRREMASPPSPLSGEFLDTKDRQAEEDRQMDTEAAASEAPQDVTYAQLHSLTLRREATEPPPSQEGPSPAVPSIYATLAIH
T16 sequence (Q8NHL6 24-650): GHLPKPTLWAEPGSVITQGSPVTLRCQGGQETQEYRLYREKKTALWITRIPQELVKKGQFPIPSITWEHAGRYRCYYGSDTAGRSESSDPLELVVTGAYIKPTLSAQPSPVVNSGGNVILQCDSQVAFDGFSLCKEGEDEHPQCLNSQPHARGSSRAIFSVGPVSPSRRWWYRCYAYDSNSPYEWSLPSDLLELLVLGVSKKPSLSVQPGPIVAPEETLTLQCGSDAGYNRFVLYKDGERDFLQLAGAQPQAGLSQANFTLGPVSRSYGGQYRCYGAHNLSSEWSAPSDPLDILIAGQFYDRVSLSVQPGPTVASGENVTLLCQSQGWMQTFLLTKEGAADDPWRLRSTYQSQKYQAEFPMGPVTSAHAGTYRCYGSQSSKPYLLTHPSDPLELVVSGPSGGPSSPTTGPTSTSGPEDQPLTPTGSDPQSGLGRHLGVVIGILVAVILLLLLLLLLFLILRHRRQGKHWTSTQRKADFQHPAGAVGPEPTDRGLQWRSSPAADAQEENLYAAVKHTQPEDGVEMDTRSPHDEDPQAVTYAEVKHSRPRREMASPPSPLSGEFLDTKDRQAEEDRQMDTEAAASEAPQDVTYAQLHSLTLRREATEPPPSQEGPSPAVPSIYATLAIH
T7 sequence (Q8NHL6 other isoform, or with tags, fused parts or gaps mutant): as the sequence (Q8NHL6 24-650) above, with Q107L, P108A, I119A, R156A counted along it
T14 sequence (Q8NHL6 other isoform, or with tags, fused parts or gaps mutant): as the sequence (Q8NHL6 24-650) above, with Q308A, P309G, N318A, T320A, E358S, G362S counted along it
T6 sequence (Q8NHL6 other isoform, or with tags, fused parts or gaps mutant): as the sequence (Q8NHL6 24-650) above, with A127S, D129A, Q148H, R152A, N180R counted along it
T4 sequence (Q8NHL6 other isoform, or with tags, fused parts or gaps mutant): as the sequence (Q8NHL6 24-650) above, with Q18A, W67A, Y99A, I100S, V126S, S181A, E184G counted along it
T8 sequence (Q8NHL6 other isoform, or with tags, fused parts or gaps mutant): as the sequence (Q8NHL6 24-650) above, with P166A, R169A, W171S, L191A, E193G, L195S, L197P counted along it
T10 sequence (Q8NHL6 other isoform, or with tags, fused parts or gaps mutant): as the sequence (Q8NHL6 24-650) above, with F299I, Y300R, D301A, W328G, Q378A, K381N counted along it
T5 sequence (Q8NHL6 other isoform, or with tags, fused parts or gaps mutant): as the sequence (Q8NHL6 24-650) above, with S132A, L145S, N146A, Q148H, P149S counted along it
T12 sequence (Q8NHL6 other isoform, or with tags, fused parts or gaps mutant): as the sequence (Q8NHL6 24-650) above, with W328G, Q330H, R347A, T349A, Y350S, Y355A counted along it
T3 sequence (Q8NHL6 other isoform, or with tags, fused parts or gaps mutant): as the sequence (Q8NHL6 24-650) above, with Y99A, I100S, V126S, A127S, D129A, N180R, S181A, E184G counted along it
T13 sequence (Q8NHL6 other isoform, or with tags, fused parts or gaps mutant): as the sequence (Q8NHL6 24-650) above, with Q324A, Q326S, S352A, Q353H, K354A counted along it
T11 sequence (Q8NHL6 other isoform, or with tags, fused parts or gaps mutant): as the sequence (Q8NHL6 24-650) above, with Y300R, D301A, R302A, S304F, H387A, D390A counted along it

B1: 2H2A (antibody, V domains shown)
VH: EVKLEESGPELVKPGASVKLSCKASGYTFTNYYMQWVKQRPGQGLEWIGWIFPGSGESSYNEKFKGKATLSADTSSTTAYMQLSSLTSEDSAVYFCARTWNYDARWGYWGQGTTLTVSS
VL: DILMTQSPASLAVSLGQRATISCIPSESIDSYGISFMHWYQQKPGQPPKLLIYRASNLESGIPARFSGSGSRTDFTLTINPVEADDVATYYCQQSNEDPFTFGSGTKLELK
With B1, the binding result with ILT2 mutant 2 was “no binding”.

B2: 18E1 (antibody, human IgG1, V domains shown)
VH: QVQLQQSGAELVKPGASVRLSCKASGYTFTAHTIHWVKQRSGQGLEWIGWLYPGSGSIKYNEKFKDKATLTADKSSSTVYMELSRLTSEDSAVYFCARHTNWDFDYWGQGTTLTVSS
VL: NIVLTQSPASLAVSLGQRATISCKASQSVDYGGASYMNWYQQKPGQPPKLLIYAASNLESGIPARFSGSGSGTDLTLNIHPVEEEDAAMYYCQQSNEEPWTFGGGTKLEIK
B2: in [1], the kon (usually the rate constant with which the complex forms) worked out at 750000 M⁻¹ s⁻¹.

B3: 12D12 (antibody, human IgG1, V domains shown)
VH: QVQLQQPGAELVKPGASVRMSCKASGYTFTSYWVHWVKQRPGQGLEWIGVIDPSDSYTSYNQNFKGKATLTVDTSSKTAYIHLSSLTSEDSAVYFCARGERYDGDYFAMDYWGQGTSVTVSS
VL: DIVMTQSPASLSVSVGETVTITCRASENIYSNLAWYQQKQGKSPQLLVYAATNLADGVPSRFSGSRSGTQYSLKINSLQSEDFGTYYCQHFWNTPRTFGGGTKLEIK
notes: also called 12012
Consider B3, for which the binding result in the test with ILT2 mutant 3, with ILT2 mutant 3b, with ILT2 mutant 4, with ILT2 mutant 5, in the test with ILT2 mutant 6 and with ILT2 mutant 7 was “binds” in each case. Moreover, the binding result in the test with ILT2 mutant 8, with ILT2 mutant 4-1, with ILT2 mutant 4-1b, with ILT2 mutant 4-2, with ILT2 mutant 4-3 and in the test with ILT2 mutant 4-4 was “binds” each time. For the same molecule, the binding result with ILT2 mutant 4-5 is “binds”.

B4: 3H5 (antibody, human IgG1, V domains shown)
VH: QVQLKESGPGLVAPSQSLSITCTVSGFSLTSYGVSWVRQPPGKGLEWLGVIWGDGSTNYHSALISRLSISKDNSKSQVFLKLNSLQTDDTATYYCAKPRWDDYAMDYWGQGTSVTVSS
VL: DIQMTQTTSSLSASLGDRVTISCRASQDISNYLNWYQQKPDGTVKLLIYYTSRLHSGVPSRFSGSGSGTDYSLTISNLEQEDIATYFCQQGNTLWTFGGGTKLEIK
With B4, in [1], the kon was 280000 M⁻¹ s⁻¹. The EC50 (read off the curve) (usually the concentration giving half of the maximal effect) in test [2] was approximately 1 mg/L.

B5: 27H5 (antibody, human IgG1, V domains shown)
VH: QVQLKESGPGLVAPSQSLSITCTVSGFSLTSYGVSWVRQPPGKGLEWLGVIWGDGNTNYHSALISRLSISKDNSKSQVFLKLNSLQTDDTATYYCARTNWDGWFAYWGQGTLVTVSA
VL: DIVMTQSHKFMSTSVGDRVSITCKASQDVGTAVAWYQQKPGQSPKLLIYWASTRHTGVPDRFTGSGSGTDFTLTISNVQSEDLADYFCQQYRSYPLGTFGGGTKLEIK
As to B5, in test [1], the kon was found to be 660000 M⁻¹ s⁻¹.
